Substrate in this series: O=C(O)C(=O)Cc1ccc(O)cc1
The series can be described thus: purified protein, by the assay type. Conditions: other: substrate HPP varied between 10 and 400 µM; SEQ ID No. 32; pH 7.8.

B1: Arabidopsis thaliana HPPD "SEQ ID No. 32" (Arabidopsis thaliana) (protein)
chain: MGHQNAAVSENQNHDDGAASSPGFKLVGFSKFVRKNPKSDKFKVKRFHHIEFWCGDATNVARRFSWGLGMRFSAKSDLSTGNMVHASYLLTSGDLRFLFTAPYSPSLSAGEIKPTTTASIPSFDHGSCRSFFSSHGLGVRAVAIEVEDAESAFSISVANGAIPSSPPIVLNEAVTIAEVKLYGDVVLRYVSYKAEDTEKSEFLPGFERVEDASSFPLDYGIRRLDHAVGNVPELGPALTYVAGFTGFHQFAEFTADDVGTAESGLNSAVLASNDEMVLLPINEPVHGTKRKSQIQTYLEHNEGAGLQHLALMSEDIFRTLREMRKRSSIGGFDFMPSPPPTYYQNLKKRVGDVLSDDQIKECEELGILVDRDDQGTLLQIFTKPLGDRPTIFIEIIQRVGCMMKDEEGKAYQSGGCGGFGKGNFSELFKSIEEYEKTLEAKQLVG
On to B1, for which the Michaelis constant (Km) (in general, the concentration of substrate that gives half-maximal velocity) worked out at 6.3 µM.

These data come from patent EP2669372A1, “HPPD variants and methods of use” (Bayer CropScience AG, priority 2010, dated 2012).
